Values of other authors, collected in patent publication US20220259272A1, “PHOTOACTIVE COMPOSITIONS FOR T[…] DELIVERY” (The University of North Carolina at Chapel Hill, priority 2019, published 2022).

What was measured:
[1] = in vivo
[2] = in vivo; remark: listed apart in the source
[3] = 1 mg/kg, up to 100 mg

Row | Substance | circulatory half-life [1] [min] | circulatory lifetime [2] [min] | catastrophic intracerebral hemorrhage, share of patients [3] [%]
1 | TF: protein that promotes blood clotting in the cascade activating thrombin | < 1 |  | 
2 | tPA: enzyme that activates plasminogen to generate plasmin, which dissolves the clot |  | 5 | ~10
